Source: patent US20240400618A1 (GRIFOLS DIAGNOSTIC SOLUTIONS, published 2024)
Like-named read-outs stand apart in the source and are kept apart here.

How the values were obtained:
pxAM-FLS-SSAS-TB-His [1] = biological target: T1, pxAM-FLS-SSAS-TB-His (SARS-CoV-2, UniProt P0DTC2 15-1213)
pxAM-FLS-SSAS-TB-His [2] = biological target: T1, pxAM-FLS-SSAS-TB-His; remark: listed apart in the source
[3] = biological target: India, Delta, pxENB9-FLS-B.1.617.2 (SARS-CoV-2, UniProt P0DTC2 15-1213)
[4] = biological target: US/CA, Epsilon, pxENB9-FLS-B.1.427 (SARS-CoV-2, UniProt P0DTC2 15-1213)
[5] = biological target: Brazil, Gamma, pxENB9-FLS-P.1 (SARS-CoV-2, UniProt P0DTC2 15-1213)
pxAM-FLS-SSAS-TB-His [6] = biological target: T1, pxAM-FLS-SSAS-TB-His; remark: listed apart in the source

B1: pxEBN4-ACE2-AAA-His (receptor)
chain: QSTIEEQAKTFLDKFNHEAEDLFYQSSLASWNYNTNITEENVQNMNNAGDKWSAFLKEQSTLAQMYPLQEIQNLTVKLQLQALQQNGSSVLSEDKSKRLNTILNTMSTIYSTGKVCNPDAPAECLLLEPGLNEIMANSLDYNERLWAWESWRSEVGKALRPLYEEYVVLKNEMARANHYEDYGDYWRGDYEVNGVDGYDYSRGQLIEDVEHTFEEIKPLYEHLHAYVRAKLMNAYPSYISPIGCLPAHLLGDMWGRFWTNLYSLTVPFGQKPNIDVTDAMVDQAWDAQRIFKEAEKFFVSVGLPNMTQGFWENSMLTDPGNVQKAVCHPTAWDLGKGDFRILMCTKVTMDDFLTAHHEMGHIQYDMAYAAQPFLLRNGANEGFHEAVGEIMSLSAATPKHLKSIGLLSPDFQEDNETEINFLLKQALTIVGTLPFTYMLEKWRWMVFKGEIPKDQWMKKWWEMKREIVGVVEPVPHDETYCDPASLFHVSNDYSFIRYYTRTLYQFQFQEALCQAAKHEGPLHKCDISNSTEAGQKLFNMLRLGKSEPWTLALENVVGAKNMNVRPLLNYFEPLFTWLKDQNKNSFVGWSTDWSPYADGGGSHHHHHHHH
**Q.** Which Kd (pxAM-FLS-SSAS-TB-His [1]) does the source give for B1 here?
**A.** 0.13 nM

**Q.** And the Kd (pxAM-FLS-SSAS-TB-His [2])?
**A.** 0.524 nM

**Q.** And the Kd [3]?
**A.** 2.55 nM

**Q.** What about the Kd [4] of the same binder?
**A.** 1.3 nM

**Q.** And the Kd [5]?
**A.** 0.00159 nM

**Q.** And the Kd (pxAM-FLS-SSAS-TB-His [6])?
**A.** 5.62 nM
